The target of test [1] is T1, Recombinant human PSGL-1(ECD)-hFc1 (R&D Systems, Cat. 3345-PS) (human, UniProt Q14242 42-305).
T1 construct: Bought; Gln42-Val295 counted on AAC50061; also called PSGL-1-Fc; PSGL-1-hFc1 chimera; not shown: human IgG1 Fc, Pro100-Lys330
T1 sequence: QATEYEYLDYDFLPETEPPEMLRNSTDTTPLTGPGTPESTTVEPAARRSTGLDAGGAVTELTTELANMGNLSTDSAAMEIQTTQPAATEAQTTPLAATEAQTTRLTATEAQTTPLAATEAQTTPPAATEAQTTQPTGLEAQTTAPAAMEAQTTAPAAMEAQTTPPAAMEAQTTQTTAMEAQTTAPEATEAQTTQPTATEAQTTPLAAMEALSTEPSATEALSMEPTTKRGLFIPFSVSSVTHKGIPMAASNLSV
Briefly: blocking ELISA vs L-selectin-Fc. In short, it runs like this:
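Antibodies, diluted serially in duplicate in 3% BSA, were incubated for 45 min at 37° C on wells coated with 2.5 ug/mL PSGL-1-Fc.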
In general terms: An ELISA detects its analyte on a solid surface through an enzyme-linked reagent.

Test [2] addresses T2, Cynomolgus PSGL-1(ECD)-HIS (cynomolgus macaque).
T2 construct: also called Cyno PSGL1-His
T2 chain: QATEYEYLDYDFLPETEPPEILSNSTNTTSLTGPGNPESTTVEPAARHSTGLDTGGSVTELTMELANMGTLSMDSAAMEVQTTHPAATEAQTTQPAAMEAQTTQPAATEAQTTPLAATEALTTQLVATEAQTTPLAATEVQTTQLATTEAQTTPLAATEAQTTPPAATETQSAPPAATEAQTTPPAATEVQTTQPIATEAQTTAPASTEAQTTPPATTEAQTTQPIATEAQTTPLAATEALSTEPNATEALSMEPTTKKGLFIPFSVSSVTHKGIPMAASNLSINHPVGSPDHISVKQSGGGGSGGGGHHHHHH
Briefly: ELISA, plate cyno PSGL-1(ECD)-HIS. Put shortly: (§1)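 Binding signal is TMB absorbance at 450 nm from HRP detection of IgG captured on immobilized cyno PSGL-1 extracellular domain, averaged over duplicates after background subtraction. Antibodies were tested at one concentration (20 nM) or across 0.003-200 nM, incubating 45 min at 37° C.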

Test [3] has as its target T3, Sulfotyrosine CCR2b biotin peptide (human).
T3 construct: also called CCR2b peptide
T3 peptide: TTFFD[sY]D[sY]GAPSHGGK(Biotin)
The experiment in a line: ELISA, 50 nM mAb. The procedure:
(§2) Recombinant PSGL-1-hFc1 chimera protein consisting of PSGL-1's extracellular domain (ECD) served as a positive control. […] Primary antibody was added (25 ul per well) in duplicate at 50 nM in assay buffer (blocking buffer containing 0.05% Tween®20) into test and control (just blocked) wells and the plate incubated for 45 min at 37° C.

For test [4], the target named is T1, Recombinant human PSGL-1(ECD)-hFc1 (R&D …). The experiment in a line: ELISA, 50 nM mAb. The procedure: as §2
Test [5] addresses T4, Sulfotyr fibrinogen γ peptide (not fully specified; Y8 and Y12 sulfated (SO3); C-terminal biotin).
T4 construct: also called Fibrinogen gamma peptide; human sulfotyrosinylated fibrinogen peptide
T4 peptide: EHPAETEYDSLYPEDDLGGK
Briefly: ELISA, 50 nM mAb. Here is the method:
as §2

The target in test [6] is T5, Biotin Y46,48,51(SO3) PSGL-1(42-62) peptide (human, sulfotyrosine at Y46, Y48 and Y51; C-terminal Lys-biotin).
T5 construct: also called fully sulfated N-terminal PSGL-1 peptide
T5 peptide: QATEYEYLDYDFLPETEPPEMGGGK
The experiment in a line: ELISA, immobilized biotin peptide. Put shortly: (§3)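 In this ELISA, half-well high binding plates (Corning Cat. #3690) received 3 ug/mL/25 ul per well of biotin-tagged PSGL-1 peptides covering residues 42 to 62, diluted in PBS, pH 7.4, and coated overnight at 4° C. Duplicate readings for each antibody were averaged and the average assay background was subtracted. PSGL-1 protein or peptide was the positive control.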

Test [7] concerns the target T6, Biotin PSGL-1(42-62) peptide, unmodified (human, C-terminal Lys-biotin).
T6 construct: Residues 42-62 followed by GGGK-biotin; also called WT; wild-type
T6 peptide: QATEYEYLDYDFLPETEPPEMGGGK
The experiment in a line: ELISA, immobilized biotin peptide. In short, it runs like this: as §3

Test [8] has as its target T5, Biotin Y46,48,51(SO3) PSGL-1(42-62) …. The experiment in a line: ELISA, plate-bound target.
The target in test [9] is T6, Biotin PSGL-1(42-62) peptide, unmodified. The experiment in a line: ELISA, plate-bound target.
The target of test [10] is T1, Recombinant human PSGL-1(ECD)-hFc1 (R&D …). Briefly: ELISA, plate-bound target.
The target of test [11] is T7, Cynomolgus PSGL-1(ECD)-hFc1 (cynomolgus macaque).
T7 construct: also called Cyno PSGL1-Fc; Cyno PSGL-1(ECD)-Fc
T7 sequence (chain, as listed by the source limits assumed): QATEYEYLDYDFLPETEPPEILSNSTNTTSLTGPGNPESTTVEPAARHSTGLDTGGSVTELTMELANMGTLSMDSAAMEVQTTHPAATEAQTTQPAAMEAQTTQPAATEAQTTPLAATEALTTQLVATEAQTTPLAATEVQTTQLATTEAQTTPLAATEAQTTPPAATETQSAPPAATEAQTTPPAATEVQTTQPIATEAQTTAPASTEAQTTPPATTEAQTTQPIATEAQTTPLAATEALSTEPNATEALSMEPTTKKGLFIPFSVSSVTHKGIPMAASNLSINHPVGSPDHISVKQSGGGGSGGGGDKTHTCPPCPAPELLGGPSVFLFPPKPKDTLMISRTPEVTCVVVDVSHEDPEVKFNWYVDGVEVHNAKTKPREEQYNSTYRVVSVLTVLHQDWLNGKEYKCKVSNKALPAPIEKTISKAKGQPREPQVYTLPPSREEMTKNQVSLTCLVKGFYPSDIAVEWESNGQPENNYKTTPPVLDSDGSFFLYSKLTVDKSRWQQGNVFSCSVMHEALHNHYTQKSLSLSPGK
The experiment in a line: ELISA, 20 nM mAb on plate cyno PSGL-1(ECD)-Fc. Put shortly: as §1

Positions count from the first letter of the chain named. Non-standard residues stand in square brackets, D forms with d. No end group written: not given here. *: point of attachment. Biotin = O=C1N[C@H]2[C@H](CS[C@H]2CCCCC(=O)*)N1; sY = N[C@@H](Cc1ccc(OS(=O)(=O)O)cc1)C(=O)O

B1: 19L04 (antibody, IgG4, V domains shown)
VH: QIQLVQSGPELKKPGETVKISCKASGYTFTTYGMSWVKQAPGKGLKWMGWINTYSGVPTYADDFKGRFAFSLETSASTAYLQINNLKIEDTATYFCARHYYGSHYFDYWGQGTTLTVSS
VL: DIMMTQSPSSLAMSVGQKVTLRCKSSQSLLNSSNQKNYLAWYQQKPGQSPKLLVYFASTRESGVPVRFIGSGSGTDFTLTISSMQAEDLADYFCQQHYFSPLTFGAGTKLELK
notes: From mouse immunisation; only variable domains given
The EC50 is the concentration needed to bring the measured effect to its halfway point. Consider B1, for which the “% max Block” value in test [1] is 0%. The molecule also showed an EC50 in test [2] of 1.11 nM.

B2: 19N05 (antibody, V domains shown)
VH: B1 VH with Y60F, I88N, Y94F, H99N, S103N
VL: DVQITQSPSYLAASPGETISINCRASNNINKYLAWYQEKPGKTNKLLIYSGSTLQSGIPSRFSGSGSGTDFTLTISSLEPEDFAMYHCQQHNYYPLTFGAGTKLELK
notes: as for B1
Turning to B2, in [1], the “% max Block” value is 0%. The molecule further yielded an EC50 in [2] of 0.95 nM.

B3: 19I01 (antibody, V domains shown)
VH: EVQLVESGGGLVKPGGSRKLSCAASGFTFSDYGMHWVRQAPEKGLEWVAYISSGSSTIYYADTVKGRFTISRDNAKNTLFLQMTSLRSEDTAMYYCARGVDGYWGQGTTLTVSS
VL: DVVMTQTPLSLPVSLGDQASISCRSSQSLVHSNGNTYLHWYLQKPGQSPKFLIYKVSNRFSGVPDRFSGSGSGTDFTLKISRVEAEDLGVYFCSQTTHVPLTFGAGTKLELK
notes: From mouse immunisation; only variable domains given; also called 19101
Broadly, the IC50 is the midpoint of a concentration-inhibition curve. Turning to B3, the “% max Block” value in test [1] came out at 100%. In addition, in [1], the IC50 worked out at 5 nM. Moreover, the “binding normalized to PSGL-1” value in [3] is 0.02; in test [5], -0.01. For the same molecule, the binding result in [3] and in test [5] was “no binding (tested: 50 nM)” in each case. Besides, in test [4], the A450nm stood at 2.33 A450nm. Besides, the EC50 in test [6] was found to be 0.844 nM; in test [7] it was 0.844 nM; in test [2], 0.68 nM; in [8], 0.92 nM; in test [9] it was 0.92 nM; in test [10] it was 1.23 nM.

B4: 2E12 (antibody, V domains shown)
VH: QVQLQQSGAELARPGASVKLSCKASGYTFTNYGLNWVKQRTGQGLEWIGEIYPRSGNTYYNEKFKGKATLTADKSSSTAYMQLSSLTSEDSAVYFCATEGAYWGQGTLVTVSA
VL: DIVMTQTPLTLSVTIGQPASISCKSSQSLLHGNGKTYLNWLLQRPGQSPKLLIYLVSKLESGIPDRFSGSGSGTDFTLEISRVEAEDLGIYYCLQSTHFPRTFGGGTKLEIK
notes: Mouse hybridoma mAb; only variable domains given
As to B4, in test [1], the “% max Block” value came to 0%. The “binding normalized to PSGL-1” value stood at 0.03 in test [3] and 0.76 in [5]. Besides, the A450nm in test [4] stood at 1.99 A450nm. The EC50 is 0.87 nM in test [6]; 0.694 nM in test [7]; 0.58 nM in [2]; 1.21 nM in [8]; 1.02 nM in test [9]; 0.6 nM in test [10].

B5: 18K07 (antibody, V domains shown)
VH: QIQLVQSGPELKKPGETVKISCEASGYTFTTYGMNWVKQAPGKGLKWMGWINTYSGVPTYADDFQGRFAFSVETSATTAYLQINNLKNEDAATYFCARSDDTYYGFAYWGQGTLVTVSA
VL: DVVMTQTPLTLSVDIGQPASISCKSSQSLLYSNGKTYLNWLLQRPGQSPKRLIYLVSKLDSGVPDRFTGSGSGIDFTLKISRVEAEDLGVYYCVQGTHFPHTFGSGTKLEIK
notes: as for B1
On to B5, for which, in [1], the “% max Block” value was determined as 0%. Also, a half-maximal effect in test [2] (EC50) was put at 8.49 nM.

B6: 9F9 (antibody, V domains shown)
VH: EVQLVETGGGLVQPKGSLKLSCAASGFTFNTNAMNWVRQAPGKGLEWVARIRSKSNNYATYYADSVKDRFTISRDDTQSMIYLQMNNLKTEDTGMYYCVRGGSYWYFDVWGAGTTVTVSS
VL: DVLMTQTPLSLPVSLGDQASISCRSSQSIVNSNGNTYLEWYLQKPGQSPKLLIYKVSNRFSGVPDRFSGSGSGTDFTLKISRVEAEDLGVYYCFQGSHVPWTFGGGTKLEIK
notes: Control anti-PSGL-1 mAb, recombinant; only variable domains given; also called 9F6
B6: the “% max Block” value in [1] was determined as 100%. In addition, in test [1], the IC50 is 10 nM. In addition, the values for the EC50 in test [8], in test [9] and in [10] were 0.05 nM, 0.04 nM and 0.06 nM, respectively.

B7: 43B6 (antibody, V domains shown)
VH: EVQLQQSGPDLVKPGALVKISCKASGYSFTAYYIHWVKQSHGKSLEWIGRVNPNTGGTSYNPKFKGKAILNVDKSSSTAYMELRSLTSEDSAVYYCARSGSPYYRYDDWGQGTTLTVSS
VL: ENVLTQSPAIMSASPGEKVTMTCRASSTVNSTYLHWFQQKSGASPKLWIYGSSNLASGVPARFSGSGSGTSYSLTISSVEAEDAATYYCQQYSGYPLTFGAGTTLELK
notes: Control anti-PSGL-1 mAb, recombinant; only variable domains given; also called 43B3
With B7, in test [1], the “% max Block” value was found to be 100%. Moreover, in [1], the IC50 was found to be 6 nM. In addition, the EC50 in test [8] amounted to 0.04 nM; in [9] it was 0.03 nM; in [10], 0.05 nM.

B8: 18F02 (antibody, V domains shown)
VH: QVQLQQPGAELVKPGASVKLSCKASGYTFTSYWMHWVKQRPGQGLEWIGMIHPNSGRTNYNEKFKSKATLTVDKSSSTAYMQLSSLTSEDSAVYYCARSDYWGQGTTLTVSS
VL: DIVMTQAAFSNPVTLGTSASISCRSSKSLLHSDGITYLYWFLQRPGQSPQLLIYRMSNLASGVPDRFSGSGSGTDFTLRISRVEAEDVGVYYCAQMLEFPRTFGGGTKLEIK
notes: as for B1
With B8, the “% max Block” value in [1] was 100%. The half-inhibitory concentration (IC50) in test [1] was 10 nM. The “binding normalized to PSGL-1” value in test [3] was determined as 0.03; in test [5], 0.21. In addition, the A450nm was 2.33 A450nm in [4] and 2 A450 nm in [11]. For the same molecule, the EC50 amounted to 0.658 nM in [6]; 0.702 nM in [7]; 0.51 nM in test [2]; 0.45 nM in test [8]; 0.68 nM in test [9]; 0.57 nM in test [10].

B9: 5E12 (antibody, V domains shown)
VH: EIQLQQSGAELVRPGASVKLSCTASGFNIKDDYIHWVKQRPEQGLEWIGRIDPANGNTKSAPKFQDKATITADTSSNTAYLHLSSLTSEDTAVYYCSIRFAYWGQGTLVTVSA
VL: DVVMTQTPLSLSVSLGDQASISCRSSQSLVYRNGDTYLHWFLQKPGQSPKLLIYKVSNRFSGVPDRFSGSGSGTDFTLKISRVEAEDLGIYFCSQNTHVPYTFGGGTKLEIK
notes: as for B4
Turning to B9, the “% max Block” value in [1] is 0%. Also, the “binding normalized to PSGL-1” value in [3] and in test [5] was 0.03 throughout. For the same molecule, in [4], the A450nm stood at 2.05 A450nm. For the same molecule, the EC50 in test [6] is 0.633 nM; in [7], 0.539 nM; in [2], 0.59 nM; in test [8], 0.92 nM; in [9], 0.86 nM; in [10], 0.51 nM.

The values above are taken from US20220396632A1 (VERSEAU THERAPEUTICS, published 2022).
